In paper PMC4992955, “Pichia pastoris Fep1 is a [2Fe-2S] protein with a Zn finger that displays an unusual oxygen-dependent role in cluster binding”:
Each block holds one molecule with its values, some of them ahead of it.

Tests used:
[1] = biological target: Flag-Fep1 (1–208) WT (Pichia pastoris); experiment: SAXS; solution SAXS at ESRF beamline BM29, 293 K, three dilutions of each sample; as-purified and after reconstitution of the [2Fe-2S] cluster; molecular weights from ab initio calculation with ATSAS
[2] = biological target: Flag-Fep1 (1–208) WT (Pichia pastoris); experiment: SEC; analytical gel-filtration on Superdex-75 (10/300) in 25 mM MOPS pH 7, 150 mM NaCl; calibrated with conalbumin, ovalbumin, carbonic anhydrase and RNase A
MBP-Fep1 (41-192) WT = biological target: T1, MBP-Fep1 (41-192) WT (Pichia pastoris (GS115), UniProt A4VAR6 41-192); experiment: EMSA; 5 uM ZnSO4, 5 uM FeCl3; 12.5 mM Hepes pH 7.9, 75 mM NaCl, 4 mM MgCl2, 1 mM EDTA, 10% glycerol, 4 mM Tris-HCl pH 7.9, 0.6 mM DTT, 1 ug poly(dI-dC)2, 5 uM ZnSO4, 5 uM FeCl3; 100-250 ng protein, 1 ng probe, 20 min at 25 C; 6% native gel at 4 C; conditions: protein: recombinant; tags: MBP fusion; label: 32P end-label (alpha-32P); 5' overhangs: 4 nt on S3, 3 nt on S4 as printed; 32 bp duplex
T1 sequence: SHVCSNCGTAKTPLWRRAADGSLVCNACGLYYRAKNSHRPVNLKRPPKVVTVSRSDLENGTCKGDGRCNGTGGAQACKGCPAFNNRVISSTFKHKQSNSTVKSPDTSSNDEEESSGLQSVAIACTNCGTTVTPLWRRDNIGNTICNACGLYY

stoichiometry N [1]: 2 | stoichiometry N [2]: 2
Molecule: Flag-Fep1 (1–208) WT (domain or fragment)

B1: fetgata2/fetgata1 (FET3 promoter GATA probe) (dsDNA)
DNA 1: GGCGATTGAACTGATAATTTTACTAAATAAGTGGAA
DNA 2: GGATTCCACTTATTTAGTAAAATTATCAGTTCAAT
binding result (MBP-Fep1 (41-192) WT): binds
